The supplement of paper PMC10567573

B1: HDAC6 (parent)
chain: YVHHQALLDVKNIAHQNKFGEDMP

Variants of: B1
Experiment: protein stability index of a GFP-peptide fusion (GPS, HEK-293T) (PSI 1-6); higher = more stable
Conditions: c terminus: a fixed tail appended
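Further: lentivirally expressed fusions sorted by FACS into six bins by GFP to DsRed ratio, PSI derived from sequencing read proportions per bin multiplied by bin number.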

Variant | protein stability index
YVHHQALLDVKNITHQNKFGEDMP [A14T] | 1.82
YVHHQALLDVKNIIHQNKFGEDMP [A14I] | 2.12
YVHHQALLDVKNICHQNKFGEDMP [A14C] | 3.38
YVHHQALLDVKNIPHQNKFGEDMP [A14P] | 2.42
YVHHQALLDVKNINHQNKFGEDMP [A14N] | 2.26
YVHHQALLDVKNIKHQNKFGEDMP [A14K] | 2.33
YVHHQALLDVKNISHQNKFGEDMP [A14S] | 2.35
YVHHQALLDVKNIVHQNKFGEDMP [A14V] | 2.59
YVHHQALLDVKNIDHQNKFGEDMP [A14D] | 2
YVHHQALLDVKNIFHQNKFGEDMP [A14F] | 1.52
YVHHQALLDVKNILHQNKFGEDMP [A14L] | 1.9
YVHHQALLDVKNIEHQNKFGEDMP [A14E] | 2.3
YVHHQALLDVKNIGHQNKFGEDMP [A14G] | 1.76
YVHHQALLDVKNIWHQNKFGEDMP [A14W] | 2.79
YVHHQALLDVKNIHHQNKFGEDMP [A14H] | 1.74
YVHHQALLDVKNIQHQNKFGEDMP [A14Q] | 2.21
YVHHQALLDVKNIRHQNKFGEDMP [A14R] | 2.04
YVHHQALLDVKNIMHQNKFGEDMP [A14M] | 1.99
YVHHQALLDVKNIYHQNKFGEDMP [A14Y] | 1.74
YVHHQALLDVKNIAHQNKAGEDMP [F19A] | 2.51
YVHHQALLDVKNIAHQNKMGEDMP [F19M] | 2.34
YVHHQALLDVKNIAHQNKQGEDMP [F19Q] | 2.35
YVHHQALLDVKNIAHQNKHGEDMP [F19H] | 2.53
YVHHQALLDVKNIAHQNKLGEDMP [F19L] | 2.09

Variant | protein stability index
YVHHQALLDVKNIAHQNKTGEDMP [F19T] | 2.19
YVHHQALLDVKNIAHQNKPGEDMP [F19P] | 2.83
YVHHQALLDVKNIAHQNKNGEDMP [F19N] | 2.05
YVHHQALLDVKNIAHQNKYGEDMP [F19Y] | 1.96
YVHHQALLDVKNIAHQNKSGEDMP [F19S] | 2.39
YVHHQALLDVKNIAHQNKCGEDMP [F19C] | 1.78
YVHHQALLDVKNIAHQNKIGEDMP [F19I] | 1.76
YVHHQALLDVKNIAHQNKWGEDMP [F19W] | 1.73
YVHHQALLDVKNIAHQNKGGEDMP [F19G] | 2.43
YVHHQALLDVKNIAHQNKRGEDMP [F19R] | 1.88
YVHHQALLDVKNIAHQNKKGEDMP [F19K] | 1.91
YVHHQALLDVKNIAHQNKDGEDMP [F19D] | 2.48
YVHHQALLDVKNIAHQNKEGEDMP [F19E] | 2.45
YVHHQALLDVKNIAHQNKVGEDMP [F19V] | 1.83
YVHHQALLDVKNIAHKNKFGEDMP [Q16K] | 1.49
YVHHQALLDVKNIAHSNKFGEDMP [Q16S] | 1.87
YVHHQALLDVKNIAHANKFGEDMP [Q16A] | 1.63
YVHHQALLDVKNIAHINKFGEDMP [Q16I] | 2.16
YVHHQALLDVKNIAHMNKFGEDMP [Q16M] | 2.28
YVHHQALLDVKNIAHFNKFGEDMP [Q16F] | 1.59
YVHHQALLDVKNIAHENKFGEDMP [Q16E] | 2.12
YVHHQALLDVKNIAHGNKFGEDMP [Q16G] | 1.58
YVHHQALLDVKNIAHWNKFGEDMP [Q16W] | 2
YVHHQALLDVKNIAHCNKFGEDMP [Q16C] | 2.01

Variant | protein stability index
YVHHQALLDVKNIAHDNKFGEDMP [Q16D] | 2
YVHHQALLDVKNIAHYNKFGEDMP [Q16Y] | 2.31
YVHHQALLDVKNIAHHNKFGEDMP [Q16H] | 1.77
YVHHQALLDVKNIAHNNKFGEDMP [Q16N] | 2.15
YVHHQALLDVKNIAHRNKFGEDMP [Q16R] | 1.8
YVHHQALLDVKNIAHVNKFGEDMP [Q16V] | 1.48
YVHHQALLDVKNIAHPNKFGEDMP [Q16P] | 2.3
YVHHQALLDVKNIAHLNKFGEDMP [Q16L] | 2.21
YVHHQALLDVKNIAHTNKFGEDMP [Q16T] | 1.91
YVHHQALLDVKNIAHQWKFGEDMP [N17W] | 1.19
YVHHQALLDVKNIAHQFKFGEDMP [N17F] | 1.38
YVHHQALLDVKNIAHQHKFGEDMP [N17H] | 1.72
YVHHQALLDVKNIAHQDKFGEDMP [N17D] | 1.9
YVHHQALLDVKNIAHQGKFGEDMP [N17G] | 1.58
YVHHQALLDVKNIAHQEKFGEDMP [N17E] | 1.91
YVHHQALLDVKNIAHQLKFGEDMP [N17L] | 1.68
YVHHQALLDVKNIAHQSKFGEDMP [N17S] | 2.46
YVHHQALLDVKNIAHQKKFGEDMP [N17K] | 1.97
YVHHQALLDVKNIAHQVKFGEDMP [N17V] | 1.75
YVHHQALLDVKNIAHQTKFGEDMP [N17T] | 2.47
YVHHQALLDVKNIAHQRKFGEDMP [N17R] | 1.89
YVHHQALLDVKNIAHQYKFGEDMP [N17Y] | 1.57
YVHHQALLDVKNIAHQIKFGEDMP [N17I] | 1.48
YVHHQALLDVKNIAHQMKFGEDMP [N17M] | 1.59

Variant | protein stability index
YVHHQALLDVKNIAHQQKFGEDMP [N17Q] | 1.85
YVHHQALLDVKNIAHQAKFGEDMP [N17A] | 2.83
YVHHQALLDVKNIAHQPKFGEDMP [N17P] | 2.12
YVHHQALLDVKNIAHQCKFGEDMP [N17C] | 1.87
YVHHQALLDVKWIAHQNKFGEDMP [N12W] | 2.64
YVHHQALLDVKLIAHQNKFGEDMP [N12L] | 1.93
YVHHQALLDVKHIAHQNKFGEDMP [N12H] | 1.72
YVHHQALLDVKDIAHQNKFGEDMP [N12D] | 1.67
YVHHQALLDVKPIAHQNKFGEDMP [N12P] | 2.12
YVHHQALLDVKVIAHQNKFGEDMP [N12V] | 1.54
YVHHQALLDVKRIAHQNKFGEDMP [N12R] | 2.36
YVHHQALLDVKMIAHQNKFGEDMP [N12M] | 1.87
YVHHQALLDVKEIAHQNKFGEDMP [N12E] | 1.66
YVHHQALLDVKYIAHQNKFGEDMP [N12Y] | 3.4
YVHHQALLDVKTIAHQNKFGEDMP [N12T] | 2.09
YVHHQALLDVKGIAHQNKFGEDMP [N12G] | 2.71
YVHHQALLDVKSIAHQNKFGEDMP [N12S] | 2.09
YVHHQALLDVKAIAHQNKFGEDMP [N12A] | 2
YVHHQALLDVKCIAHQNKFGEDMP [N12C] | 1.42
YVHHQALLDVKKIAHQNKFGEDMP [N12K] | 2.18
YVHHQALLDVKQIAHQNKFGEDMP [N12Q] | 1.57
YVHHQALLDVKIIAHQNKFGEDMP [N12I] | 2.4
